According to patent publication US12076390 (Dana-Farber, dated 2024):

Molecular target: HA on infectious virus A/Brisbane/10/07 (H3N2-BR07) (influenza A virus A/Brisbane/10/07 …)
Test: cell-based or functional assay

B1: 3I14 VLD94N IgG1 (antibody, V domains shown)
VH: QVQLLESGGGVVQPGRSLRLSCAASGFTFSNYGMHWVRQAPGKGLEWVAIISFDGSKKYYANSVKGRSTISRDNSKNTLSLQMNSLGPEDTALYYCAKLPSPYYFDSRFVWVAASAFHFWGQGILVTVSS
VL: NFMLTQPPSASGTPGQRVTISCSGSSSNIGGNTVHWFQQLPGTAPKLLIYTNSLRPSGVPDRFSGSKSGTSASLAISGLQSEDEADYYCAAWDNSLNGQVFGGGTKLTVL
  IC50, neutralization of infectious H3-BR07 virus: 0.337 µg/mL
